Experiments:
Experiment in all cases: competitive inhibition of enzyme activity
[NO2Y731]-α2(Y730F) = biological target: T1, [NO2Y731]-α2(Y730F) (E. coli, UniProt P00452 1-761, Y730F, 3-nitrotyrosine (NO2Y) in place of Y731)
T1 sequence (looked up): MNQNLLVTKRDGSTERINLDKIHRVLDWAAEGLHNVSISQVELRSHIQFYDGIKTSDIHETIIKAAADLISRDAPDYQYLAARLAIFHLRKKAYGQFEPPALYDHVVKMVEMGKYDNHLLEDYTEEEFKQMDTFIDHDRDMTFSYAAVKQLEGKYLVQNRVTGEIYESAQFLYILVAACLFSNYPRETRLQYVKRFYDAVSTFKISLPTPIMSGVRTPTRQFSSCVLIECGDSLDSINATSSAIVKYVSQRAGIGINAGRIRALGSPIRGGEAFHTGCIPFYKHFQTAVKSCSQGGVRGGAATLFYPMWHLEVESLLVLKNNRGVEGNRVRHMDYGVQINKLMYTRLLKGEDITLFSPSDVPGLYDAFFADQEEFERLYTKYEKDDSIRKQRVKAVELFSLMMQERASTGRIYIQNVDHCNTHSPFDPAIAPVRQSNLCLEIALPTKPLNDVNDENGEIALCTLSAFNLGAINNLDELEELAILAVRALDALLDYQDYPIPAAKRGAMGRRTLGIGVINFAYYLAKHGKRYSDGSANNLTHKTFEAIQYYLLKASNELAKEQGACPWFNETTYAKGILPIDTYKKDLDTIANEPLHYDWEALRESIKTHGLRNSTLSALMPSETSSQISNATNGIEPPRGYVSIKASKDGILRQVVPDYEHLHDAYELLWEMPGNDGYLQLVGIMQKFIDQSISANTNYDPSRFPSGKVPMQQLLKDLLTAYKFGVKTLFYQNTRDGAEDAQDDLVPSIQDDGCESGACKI

[NO2Y730]-α2(Y731F) = biological target: T2, [NO2Y730]-α2(Y731F) (E. coli, UniProt P00452 1-761, Y731F, 3-nitrotyrosine (NO2Y) in place of Y730)
T2 sequence (looked up): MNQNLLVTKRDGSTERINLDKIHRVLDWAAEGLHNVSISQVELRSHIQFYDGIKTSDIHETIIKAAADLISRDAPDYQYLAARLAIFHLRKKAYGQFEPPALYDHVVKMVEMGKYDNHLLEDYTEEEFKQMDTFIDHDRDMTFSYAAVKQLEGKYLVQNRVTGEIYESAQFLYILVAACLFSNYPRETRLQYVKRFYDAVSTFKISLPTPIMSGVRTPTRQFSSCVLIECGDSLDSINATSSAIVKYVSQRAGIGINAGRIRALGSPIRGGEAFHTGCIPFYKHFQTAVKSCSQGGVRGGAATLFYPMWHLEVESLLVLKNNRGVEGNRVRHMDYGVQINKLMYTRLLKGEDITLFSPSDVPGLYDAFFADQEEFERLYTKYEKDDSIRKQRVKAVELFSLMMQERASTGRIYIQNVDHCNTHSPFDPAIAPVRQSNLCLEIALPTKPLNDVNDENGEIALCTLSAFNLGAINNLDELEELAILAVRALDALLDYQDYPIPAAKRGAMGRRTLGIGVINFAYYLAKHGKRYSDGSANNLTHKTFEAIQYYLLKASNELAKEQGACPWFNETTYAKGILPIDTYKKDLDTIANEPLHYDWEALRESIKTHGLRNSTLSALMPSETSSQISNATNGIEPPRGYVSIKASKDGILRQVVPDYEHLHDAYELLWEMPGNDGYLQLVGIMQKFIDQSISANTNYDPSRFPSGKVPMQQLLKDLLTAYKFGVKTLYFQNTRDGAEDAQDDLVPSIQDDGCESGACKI

[1] = biological target: T3, wild-type E. coli ribonucleotide reductase α2 subunit (E. coli, UniProt P00452 1-761)
T3 sequence (looked up): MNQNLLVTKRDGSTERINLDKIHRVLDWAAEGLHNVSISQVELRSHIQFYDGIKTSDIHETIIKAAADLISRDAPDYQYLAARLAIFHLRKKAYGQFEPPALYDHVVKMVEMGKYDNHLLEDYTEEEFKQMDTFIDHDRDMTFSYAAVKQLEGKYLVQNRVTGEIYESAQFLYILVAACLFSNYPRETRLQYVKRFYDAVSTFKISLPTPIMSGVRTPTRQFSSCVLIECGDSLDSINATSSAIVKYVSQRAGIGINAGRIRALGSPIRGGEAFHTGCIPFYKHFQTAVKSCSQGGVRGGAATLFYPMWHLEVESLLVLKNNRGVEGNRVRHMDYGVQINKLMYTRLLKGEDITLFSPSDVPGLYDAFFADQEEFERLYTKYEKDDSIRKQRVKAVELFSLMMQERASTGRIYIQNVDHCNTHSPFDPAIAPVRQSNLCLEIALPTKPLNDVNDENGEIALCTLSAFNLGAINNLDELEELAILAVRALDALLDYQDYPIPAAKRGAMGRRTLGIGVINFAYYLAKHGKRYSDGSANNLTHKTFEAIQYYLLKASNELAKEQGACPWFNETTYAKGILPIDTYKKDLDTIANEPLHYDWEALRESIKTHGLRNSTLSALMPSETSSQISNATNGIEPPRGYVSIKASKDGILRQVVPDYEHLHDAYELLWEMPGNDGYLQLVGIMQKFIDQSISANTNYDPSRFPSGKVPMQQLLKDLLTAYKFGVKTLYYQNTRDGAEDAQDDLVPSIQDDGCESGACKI

Kd ([NO2Y731]-α2(Y730F)): 500 ± 40 nM
Kd ([NO2Y730]-α2(Y731F)): 1450 ± 140 nM
binding result [1]: binds
B1: wild-type E. coli ribonucleotide reductase β2 subunit (enzyme, UniProt P69924 1-376, looked up)
chain: MAYTTFSQTKNDQLKEPMFFGQPVNVARYDQQKYDIFEKLIEKQLSFFWRPEEVDVSRDRIDYQALPEHEKHIFISNLKYQTLLDSIQGRSPNVALLPLISIPELETWVETWAFSETIHSRSYTHIIRNIVNDPSVVFDDIVTNEQIQKRAEGISSYYDELIEMTSYWHLLGEGTHTVNGKTVTVSLRELKKKLYLCLMSVNALEAIRFYVSFACSFAFAERELMEGNAKIIRLIARDEALHLTGTQHMLNLLRSGADDPEMAEIAEECKQECYDLFVQAAQQEKDWADYLFRDGSMIGLNKDILCQYVEYITNIRMQAVGLDLPFQTRSNPIPWINTWLVSDNVQVAPQEVEVSSYLVGQIDSEVDTDDLSNFQL
modifications: tyrosyl radical at Y122 (1-1.2 radicals per β2), diferric cluster
